B1: L3-1Y (2): contains the same epitope as L3-1Y but has the hIgG2 backbone (antibody)
heavy: EVQLVESGGGLVQPGGSLRLSCAASGFTFTDYYMSWVRQAPGKGLEWLGFIRNKANGYTTEYSASVKGRFTISRDNSKNTLYLQMNSLRAEDTAVYYCARDNWFAYWGQGTLVTVSSASTKGPSVFPLAPCSRSTSESTAALGCLVKDYFPEPVTVSWNSGALTSGVHTFPAVLQSSGLYSLSSVVTVPSSNFGTQTYTCNVDHKPSNTKVDKTVERKCCVECPPCPAPPVAGPSVFLFPPKPKDTLMISRTPEVTCVVVDVSHEDPEVQFNWYVDGVEVHNAKTKPREEQFNSTFRVVSVLTVVHQDWLNGKEYKCKVSNKGLPAPIEKTISKTKGQPREPQVYTLPPSREEMTKNQVSLTCLVKGFYPSDIAVEWESNGQPENNYKTTPPMLDSDGSFFLYSKLTVDKSRWQQGNVFSCSVMHEALHNHYTQKSLSLSPGK
light: DIQMTQSPSSLSASVGDRVTITCKSSQSLLASGNQNNYLAWYQQKPGKAPKMLIIWASTRVSGVPSRFSGSGSGTDFTLTISSLQPEDFATYYCQQSYSRPYTFGQGTKVEIKRTVAAPSVFIFPPSDEQLKSGTASVVCLLNNFYPREAKVQWKVDNALQSGNSQESVTEQDSKDSTYSLSSTLTLSKADYEKHKVYACEVTHQGLSSPVTKSFNRGEC

Legend:
HCC827 ER15 cells = settings: HCC827 ER15, 72 hours, L3-1Y 0.14 μg/ml, Erlotinib 10 nm
Method: HCC827 ER15, which expresses c-Met at a high level but Cbl at a relatively low level was used in assay for the apoptotic effect of a combination dosage of an anti-c-Met antibody and an EGFR antagonist.
Then, cell viability was measured in the same manner as in Example 1.4.

HS746T tumor = test: Tumor xenograft model, HS746T; assay type: in vivo, BALB/c nude mice; settings: 5 mg/kg I.V. once/week, 28th day
Method: (§1) For use in examining in vivo effects of anti-c-Met antibody on tumor growth, male BALB/c nude mice, 5˜6 weeks old, were xenografted with a tumor (all experiments were carried out in Pharmalegacy, China). For at least one week before the transplantation, the mice were acclimated.
(§2) Then, the mice were anesthetized with 1-2% isofuran and xenografted subcutaneously in the right flank with 5×10^6 cells of EBC-1 or HS746T. Seven days after the grafting, the tumors measured 50 mm3 or greater on average. The mice were divided into the following three groups: 5D5 (5 mg/kg I.V. once/week) treated, L3-1Y (5 mg/kg I.V. once/week) treated, and vehicle (PBS 0.2 ml I.V. once/week) treated (control). Each group was composed of 15 mice.
(§3) Over a total of five weeks, volumes and weights of the tumors were measured […]. Tumor volume (V) was calculated according to the following formula: V (mm3)={Long Axis Length (mm)×(Small Axis Length (mm))2}/2.
(§4) L3-1Y (1) is an antibody based on hIgG1 with the Th7 hinge (usually referred to just as L3-1Y) while L3-1Y (2) contains the same epitope but has the hIgG2 backbone. […] Tumor suppression of each of the antibodies was expressed as percentages of volume reduction compared to the tumor volume on the 28th day of the vehicle-treated group (0%) in Table 3 for EBC-1 and Table 4 for HS746T.

EBC-1 tumor = test: Tumor xenograft model, EBC-1; assay type: in vivo, BALB/c nude mice; settings: EBC-1 xenograft, 5 mg/kg I.V. once/week, 28th day
Method: as §1, §2, §3, §4

Molecule | cell viability as percentage of untreated control (HCC827 ER15 cells) | At d28:TV; tumor suppression as percentage of volume reduction compared to vehicle-treated group (HS746T tumor) | At d28:TV; tumor suppression as percentage of volume reduction compared to vehicle-treated group (EBC-1 tumor) [%]
C#Cc1cccc(Nc2ncnc3cc(OCCOC)c(OCCOC)cc23)c1 [Erlotinib] | almost no apoptotic effects | – | –
B1 | – | Regression | 87.0

Source: patent US9213031B2, “Use of Cbl as biomarker for identifying subject suitable for treatment with anti-c-Met antibody” (SAMSUNG ELECTRONICS CO., LTD., priority 2012, dated 2015)
